Test results taken from US20230374151A1 (GlaxoSmithKline, published 2023).
Substitutions are numbered along the chain they refer to. Several values for one entry are separate records, joined by “and”; a condition that tells them apart may be missing. Identical values can stand only once.

T1: MUC1 peptide (non-glycosylated), biotinylated (N-terminal Biotin-PEG2; C-terminal amide)
T1 construct: also called 36-4; 7-36-4
T1 peptide: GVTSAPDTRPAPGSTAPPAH

B1: humanised anti-TnMUC1 scFv protein 11P12 (94A), L1-H5 (scFv)
scFv: ELVMTQSPDSLAVSLGERATINCKSSQSLLNSGDQKNYLTWYQQKPGQPPKLLIYWASTRESGVPDRFSGSGSGTDFTLTISSLQAEDVAVYYCQNDYSYPLTFGQGTKLEIKGGGGSGGGGSGGGGSGGGGSQVQLVQSGAEVKKPGSSVKVSCKASGYTFTDHAIHWVRQAPGQGLEWIGHFSPGNTDIKYNDKFKGRATLTVDRSTSTAYMELSSLRSEDTAVYFCKTSTFFFDYWGQGTTVTVSSAAAHHHHHH
notes: Supernatant of construct 6D12 in the Octet assay; purified 11P12 elsewhere; also called 6D12
B2: humanised anti-TnMUC1 scFv protein 13P16 (97A), L2-H3 (scFv)
scFv: B1 scFv with E1D, L2I, Y55F, I181M, A201V, L203I, V205A, R207K, F228Y
notes: Supernatant of construct 6D16 in the Octet assay; purified 13P16 elsewhere. scFv of CAR MB024; also called 6D16
B3: humanised anti-TnMUC1 scFv protein 13P18 (19A), L2-H5 (scFv)
scFv: B1 scFv with E1D, L2I, Y55F
notes: Supernatant of construct 6D18 in the Octet assay; purified 13P18 elsewhere. scFv of CAR MB025; also called 6D18
B4: humanised anti-TnMUC1 scFv protein 16P4 (82A), L0-H3 (scFv)
scFv: B1 scFv with E1D, L2I, I181M, A201V, L203I, V205A, R207K, F228Y
notes: Supernatant of construct 6D4 in the Octet assay; purified 16P4 elsewhere. scFv of CAR MB021; also called 6D4
B5: humanised anti-TnMUC1 scFv protein 11P6 (89A), L0-H5 (scFv)
scFv: B1 scFv with E1D, L2I
notes: Supernatant of construct 6D6 in the Octet assay; purified 11P6 elsewhere; also called 6D6

These binders were tested against T2, STnMUC1 peptide, biotinylated (assay: SPR (Biacore T200), STnMUC1 peptide on CAP chip, scFv as analyte).
T2 construct: also called STn peptide; 35-1
Description: (§1) The CAP chip (from the Biotin CAPture kit) was docked into BIAcore T200 instrument to hydrate overnight, as per manufacturer instructions. When the chip is docked (for the first time or after storage), the surface of the sensor chip needs to be conditioned with 3×1 minute injections of Regeneration Solution (from the Biotin CAPture kit). Regeneration Solution was prepared by mixing 3 parts of Regeneration Stock 1 (8M Guanidine-HCl) with 1-part Regeneration Stock 2 (1M NaOH). Both the reference and active flow cells of the sensor chip were conditioned with 3×60 second injections of Regeneration Solution at a flow rate of 10 μl/min.
(§2) Biotin CAPture Reagent was captured onto the active and reference flow cells for 300 seconds at 2 μl/min. The biotinylated peptides were diluted in BIAcore Running Buffer (as described above) and captured onto the active flow cell only, at a flow rate of 10 μl/min to obtain the capture level calculated in the equation detailed above.

Row | Binder | fold lower affinity than the murine 5E5 scFv protein [fold]
1 | B1 | ~10
2 | B2 | ~10
3 | B3 | ~10
4 | B4 | ~10

Target: T1, MUC1 peptide (non-glycosylated), …
Test: SPR (Biacore T200), biotinylated peptide on CAP chip, scFv as analyte

Row | Binder | binding result
5 | B5 | no binding (tested: 500 nM)
6 | B1 | no binding (tested: 500 nM)
7 | B3 | no binding (tested: 500 nM)
8 | B4 | no binding (tested: 500 nM)

These binders were tested against T3, TnMUC1 peptide (fully glycosylated), biotinylated (assay: SPR (Biacore T200), peptide 36-2 on CAP chip, scFv as analyte, 1:1 fit; average).
T3 construct: Two batches (36-2 and 65-1) of the same peptide; also called 36-2; 7-36-2
Description: as §2
(§3) The humanised anti-TnMUC1 scFv proteins were passed over the reference and active flow cells at 500, 125, 31.25, 7.8, 1.9, 0 nM for binding to TnMUC1 and MUC1 peptides with a 300 second association followed by a 900 seconds dissociation with BIAcore Running Buffer at a flow rate of 30 μl/min.
(§4) BIAcore T200 Evaluation Software v3.0 was used to analyse the data. The data obtained has been fitted to a 1:1 binding model with the Rmax parameter set to local. As this is a capture experiment, a local Rmax parameter would be truly reflective as the protein is recaptured every time and theoretically surface is slightly different at each recapture, possibly producing slightly different capture each time. Kinetic Parameters (KD, kd and kₐ) were calculated for all the humanised anti-TnMUC1 scFv proteins.

Row | Binder | Kd [nM] | koff [s⁻¹] | kon [M⁻¹ s⁻¹]
9 | B5 | 26.7 | 0.00137 | 51500
10 | B1 | 54.4 | 0.00155 | 28400
11 | B2 | 174 | 0.00653 | 37800
12 | B3 | 70.9 | 0.0013 | 18400
13 | B4 | 196 | 0.00687 | 35100

These binders were tested against T3, TnMUC1 peptide (fully glycosylated), … (assay: SPR (Biacore T200), peptide 36-2 on CAP chip, scFv as analyte, 1:1 fit; single run).
Description: as §2, §3, §4

Row | Binder | Kd | koff | kon
14 | B5 | 25.7 nM and 27.6 nM | 0.00138 s⁻¹ and 0.00135 s⁻¹ | 53800 M⁻¹ s⁻¹ and 49100 M⁻¹ s⁻¹
15 | B1 | 53.6 nM and 55.2 nM | 0.00158 s⁻¹ and 0.00151 s⁻¹ | 29400 M⁻¹ s⁻¹ and 27300 M⁻¹ s⁻¹
16 | B2 | 166 nM and 181 nM | 0.00654 s⁻¹ and 0.00652 s⁻¹ | 39500 M⁻¹ s⁻¹ and 36100 M⁻¹ s⁻¹
17 | B3 | 67.6 nM and 74.2 nM | 0.00131 s⁻¹ and 0.00129 s⁻¹ | 19400 M⁻¹ s⁻¹ and 17400 M⁻¹ s⁻¹
18 | B4 | 195 nM and 197 nM | 0.00694 s⁻¹ and 0.0068 s⁻¹ | 35600 M⁻¹ s⁻¹ and 34500 M⁻¹ s⁻¹

Target: T1, MUC1 peptide (non-glycosylated), …
Test: SPR (Biacore T200): biotinylated peptide captured on CAP chip, scFv as analyte

Row | Binder | binding result
19 | B2 | no binding

What follows are binders tested against T3, TnMUC1 peptide (fully glycosylated), … (assay: SPR (Biacore T200), peptide 36-2 on CAP chip, scFv as analyte, 1:1 fit; average, restated in nM).
Description: as §2, §3, §4

Row | Binder | Kd [nM]
20 | B5 | 26.7
21 | B1 | 54
22 | B2 | 174
23 | B3 | 70.9
24 | B4 | 196

The binders below were run against T2, STnMUC1 peptide, biotinylated (assay: SPR (Biacore T200): biotinylated STnMUC1 peptide (35-1) captured on CAP chip, scFv as analyte).

Row | Binder | Kd [nM]
25 | B5 | 199
26 | B2 | 445
27 | B3 | 196
28 | B4 | 536

Target: T2, STnMUC1 peptide, biotinylated
Test: as above
Remark: another data set of the same source
Description: as §1, §2

Row | Binder | Kd [nM] | koff [s⁻¹] | kon [M⁻¹ s⁻¹]
29 | B2 | 445 | 0.00117 | 2630

These binders were tested against T4, TnMUC1 peptide 1 (partially glycosylated), biotinylated (assay: SPR (Biacore T200): biotinylated TnMUC1 peptide 1 (96-1) captured on CAP chip, scFv as analyte).
T4 construct: also called 96-1; 32A

Row | Binder | Kd [nM] | koff [s⁻¹] | kon [M⁻¹ s⁻¹]
30 | B2 | 231 | 0.00635 | 27500

What follows are binders tested against T3, TnMUC1 peptide (fully glycosylated), … (assay: SPR (Biacore T200): biotinylated TnMUC1 peptide batch 65-1 captured on CAP chip, scFv as analyte).

Row | Binder | Kd [nM] | koff [s⁻¹] | kon [M⁻¹ s⁻¹]
31 | B2 | 195 | 0.00633 | 32600

These binders were tested against T2, STnMUC1 peptide, biotinylated (assay: SPR (Biacore T200): biotinylated STnMUC1 peptide (35-1) captured on CAP chip, scFv as analyte, 1:1 fit, average).

Row | Binder | Kd [nM] | koff [s⁻¹] | kon [M⁻¹ s⁻¹]
32 | B5 | 199 | 0.000435 | 2200
33 | B2 | 445 | 0.00117 | 2630
34 | B3 | 196 | 0.000423 | 2160
35 | B4 | 536 | 0.00122 | 2290

Each binder was assayed against T4, TnMUC1 peptide 1 (partially …) (assay: SPR (Biacore T200): biotinylated TnMUC1 peptide 1 (96-1) captured on CAP chip, scFv as analyte, 1:1 fit, average).
Description: as §2, §3, §4

Row | Binder | Kd [nM] | koff [s⁻¹] | kon [M⁻¹ s⁻¹]
36 | B5 | 60.3 | 0.00135 | 22500
37 | B2 | 231 | 0.00635 | 27500
38 | B3 | 51.1 | 0.00131 | 
39 | B4 | 250 | 0.00708 | 28500

What follows are binders tested against T3, TnMUC1 peptide (fully glycosylated), … (assay: SPR (Biacore T200): biotinylated TnMUC1 peptide batch 65-1 captured on CAP chip, scFv as analyte, 1:1 fit, average).
Description: as §2, §3, §4

Row | Binder | Kd [nM] | koff [s⁻¹] | kon [M⁻¹ s⁻¹]
40 | B5 | 48.6 | 0.00136 | 28000
41 | B2 | 195 | 0.00633 | 32600
42 | B3 | 40.7 | 0.00127 | 
43 | B4 | 208 | 0.00698 | 33900
